Measured values published in publication PMC9426574.

What was measured:
HRP-labeled human S100A7 = HRP-labeled human S100A7 (UniProt P31151); assay: ELISA; conditions: His-tagged TdfJ on NTA-coated 96-well plate; absorbance at 450 nm; parent: est. 100; read off a plot
[1] = target: His-tagged wild-type TdfJ (purified) (Neisseria gonorrhoeae); assay: SPR; His-tagged TdfJ (89 μg/mL) immobilised on Ni-NTA sensor chip, free NTA blocked with His-tagged streptavidin; S100A7 injected at 1, 10, 50, 100, 500 nM, 20 μL/min; PBS pH 8.0; OpenSPR XT; steady-state, single-site fit (EC50 analysis setting)
[2] = target: His-tagged TdfJ K261P/R262P (purified) (Neisseria gonorrhoeae); assay: as above
[3] = target: transferrin (Homo sapiens) (UniProt P02787); conditions: cited from earlier work
Sequence of UniProt P02787 (P02787 20-698): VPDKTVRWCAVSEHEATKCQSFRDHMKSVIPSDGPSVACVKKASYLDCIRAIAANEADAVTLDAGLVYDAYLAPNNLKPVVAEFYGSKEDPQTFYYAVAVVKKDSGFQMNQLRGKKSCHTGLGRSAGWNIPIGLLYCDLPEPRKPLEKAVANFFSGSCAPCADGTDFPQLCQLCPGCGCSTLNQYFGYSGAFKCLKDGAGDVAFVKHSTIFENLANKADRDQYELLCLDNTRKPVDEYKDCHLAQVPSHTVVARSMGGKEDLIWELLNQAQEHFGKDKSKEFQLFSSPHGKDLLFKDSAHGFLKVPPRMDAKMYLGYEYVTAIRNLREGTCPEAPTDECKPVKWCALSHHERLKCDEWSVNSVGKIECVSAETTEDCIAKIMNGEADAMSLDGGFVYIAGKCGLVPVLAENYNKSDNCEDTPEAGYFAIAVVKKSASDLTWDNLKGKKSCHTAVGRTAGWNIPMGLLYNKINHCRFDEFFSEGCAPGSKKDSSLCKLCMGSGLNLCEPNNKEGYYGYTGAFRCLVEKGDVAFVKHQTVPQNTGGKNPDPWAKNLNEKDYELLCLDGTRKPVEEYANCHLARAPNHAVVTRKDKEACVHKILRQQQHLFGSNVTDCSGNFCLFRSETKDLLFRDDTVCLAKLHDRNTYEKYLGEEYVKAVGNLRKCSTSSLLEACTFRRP

| Substance | percent of parent (% of Wildtype) (HRP-labeled human S100A7) | other results |
| --- | --- | --- |
| His-tagged wild-type TdfJ (purified) K256E | 87 |  |
| His-tagged wild-type TdfJ (purified) K261P; R262P | 3 |  |
| His-tagged wild-type TdfJ (purified) L266P | 74 |  |
| His-tagged wild-type TdfJ (purified) Q265P | 80 |  |
| His-tagged wild-type TdfJ (purified) Q265P; L266P | 20 |  |
| His-tagged wild-type TdfJ (purified) R262P | 79 |  |
| Human S100A7 (from UniProt P31151 1-101) (natural protein) |  | Kd [1]: 41 nM; SPR response at 1 nM S100A7 [1]: 220 RU; SPR response at 500 nM S100A7 [1]: 900 RU; SPR response at equilibrium at 500 nM S100A7 [2]: 325 RU |
| TbpA (from UniProt Q01996) |  | Kd [3]: 10 nM |
